Measurements: doi:10.1101/327866 (bioRxiv, 2018)

What was measured:
[1] = molecular target: Ara h 3, purified natural peanut allergen (Arachis hypogaea (peanut), cultivar not …, UniProt O82580); assay: BLI
[2] = molecular target: Ara h 2, purified natural peanut allergen (Arachis hypogaea (peanut), cultivar not …, UniProt Q6PSU2); assay: BLI

| Binder | binding result [1] | binding result [2] |
| --- | --- | --- |
| PA13P1H08 variant: heavy chain reverted to the inferred naive rearrangement, native light chain (antibody, V domains shown) VH: QVQLVESGGGVVQPGRSLRLSCAASGFTFSSYGMHWVRQAPGKGLEWVAVISYDGSNKYYADSVKGRFTISRDNSKNTLYLQMNSLRAEDTAVYYCAKVLDYSNYYYYYGMDVWGQGTTVTVSS VL: EIVLTQSPGTLSLSPGGRGTLSCRTSQTINNAHLAWYQHKPGQAPRLLIYGSSERATGVPDRFSGSGSGSDFTLTISSLEAEDFAVYYCQHYGRSPPYTFGPGTKLDIK | binds | binds |
| PA13P1H08 variant: only the heavy chain framework regions reverted to the inferred naive rearrangement, native light chain (antibody, V domains shown) VH: QVQLVESGGGVVQPGRSLRLSCAASGFTFSTFGMHWVRQAPGKGLEWVAVISNDGEKSYYADSVKGRFTISRDNSKNTLYLQMNSLRAEDTAVYYCAKVLDYSRYSYYYGMDVWGQGTTVTVSS VL: EIVLTQSPGTLSLSPGGRGTLSCRTSQTINNAHLAWYQHKPGQAPRLLIYGSSERATGVPDRFSGSGSGSDFTLTISSLEAEDFAVYYCQHYGRSPPYTFGPGTKLDIK | binds | binds |
| PA13P1H08 variant: only the heavy chain CDR2 reverted to the inferred naive rearrangement, native light chain (antibody, V domains shown) VH: QVQLVNSGGGVVQPGRSLRLSCVASGFTFSTFGIHWVRQAPGKGLEWVAVISYDGSNKESADSVKGRFTPSRDNSKNTVYLQMNNLRVEDTAVYYCAKVLDYSRYSYYYGMDVWGQGTTVIVSS VL: EIVLTQSPGTLSLSPGGRGTLSCRTSQTINNAHLAWYQHKPGQAPRLLIYGSSERATGVPDRFSGSGSGSDFTLTISSLEAEDFAVYYCQHYGRSPPYTFGPGTKLDIK | binds | binds |

The remaining lines, values ahead:

| binding result [1] | binding result [2] | Binder |
| --- | --- | --- |
| binds | binds | PA13P1H08 variant: only the heavy chain CDR3 reverted to the inferred naive rearrangement, native light chain (antibody, V domains shown) VH: QVQLVNSGGGVVQPGRSLRLSCVASGFTFSTFGIHWVRQAPGKGLEWVAVISNDGEKSESADSVKGRFTPSRDNSKNTVYLQMNNLRVEDTAVYYCAKVLDYSNYYYYYGMDVWGQGTTVIVSS VL: EIVLTQSPGTLSLSPGGRGTLSCRTSQTINNAHLAWYQHKPGQAPRLLIYGSSERATGVPDRFSGSGSGSDFTLTISSLEAEDFAVYYCQHYGRSPPYTFGPGTKLDIK |
| binds | binds | PA13P1H08 variant: only the heavy chain CDR1 reverted to the inferred naive rearrangement, native light chain (antibody, V domains shown) VH: QVQLVNSGGGVVQPGRSLRLSCVASGFTFSSYGIHWVRQAPGKGLEWVAVISNDGEKSESADSVKGRFTPSRDNSKNTVYLQMNNLRVEDTAVYYCAKVLDYSRYSYYYGMDVWGQGTTVIVSS VL: EIVLTQSPGTLSLSPGGRGTLSCRTSQTINNAHLAWYQHKPGQAPRLLIYGSSERATGVPDRFSGSGSGSDFTLTISSLEAEDFAVYYCQHYGRSPPYTFGPGTKLDIK |
